Assay results as given in patent publication US20250295772A1 (ABATA THERAPEUTICS, published 2025).

T1: preproinsulin 73-90 peptide complexed with HLA-DRB1*04:01 (human, UniProt P01903 26-254; P01911 30-266)
T1 MHC II alpha: not shown
T1 MHC II beta: not shown
T1 peptide: GAGSLQPLALEGSLQKRG


Biological target: T1, preproinsulin 73-90 peptide complexed …
Assay: cell-based or functional assay

Binder	EC50 (nM) of CD69 upregulation, conventional CD4+ T cells + BLS-DRB1*04:01 cells, peptide titrated
TCR-B (TCR) TCR alpha: EDKVVQSPLSLVVHEGDTVTLNCSYEVTNFRSLLWYKQEKKAPTFLFMLTSSGIEKKSGRLSSILDKKELFSILNITATQTGDSAVYLCAVNSGAGSYQLTFGKGTKLSVIPNIQNPDPAVYQLRDSKSSDKSVCLFTDFDSQTNVSQSKDSDVYITDKTVLDMRSMDFKSNSAVAWSNKSDFACANAFNNSIIPEDTFFPSPESSCDVKLVEKSFETDTNLNFQNLSVIGFRILLLKVAGFNLLMTLRLWSS TCR beta: DAEITQSPRHKITETGRQVTLACHQTWNHNNMFWYRQDLGHGLRLIHYSYGVQDTNKGEVSDGYSVSRSNTEDLPLTLESAASSQTSVYFCASSSGGLYEQYFGPGTRLTVTEDLKNVFPPEVAVFEPSEAEISHTQKATLVCLATGFYPDHVELSWWVNGKEVHSGVSTDPQPLKEQPALNDSRYCLSSRLRVSATFWQNPRNHFRCQVQFYGLSENDEWTQDRAKPVTQIVSAEAWGRADCGFTSESYQQGVLSATILYEILLGKATLYAVLVSALVLMAMVKRKDSRG	5.68 nM
TCR-B DS (TCR) TCR alpha: EDKVVQSPLSLVVHEGDTVTLNCSYEVTNFRSLLWYKQEKKAPTFLFMLTSSGIEKKSGRLSSILDKKELFSILNITATQTGDSAVYLCAVNSGAGSYQLTFGKGTKLSVIPNIQNPDPAVYQLRDSKSSDKSVCLFTDFDSQTNVSQSKDSDVYITDKCVLDMRSMDFKSNSAVAWSNKSDFACANAFNNSIIPEDTFFPSPESSCDVKLVEKSFETDTNLNFQNLSVIGFRILLLKVAGFNLLMTLRLWSS TCR beta: DAEITQSPRHKITETGRQVTLACHQTWNHNNMFWYRQDLGHGLRLIHYSYGVQDTNKGEVSDGYSVSRSNTEDLPLTLESAASSQTSVYFCASSSGGLYEQYFGPGTRLTVTEDLKNVFPPEVAVFEPSEAEISHTQKATLVCLATGFYPDHVELSWWVNGKEVHSGVCTDPQPLKEQPALNDSRYCLSSRLRVSATFWQNPRNHFRCQVQFYGLSENDEWTQDRAKPVTQIVSAEAWGRADCGFTSESYQQGVLSATILYEILLGKATLYAVLVSALVLMAMVKRKDSRG	3.78 nM
TCR-C (TCR) TCR alpha: RGNGKNQVEQSPQSLIILEGKNCTLQCNYTVSPFSNLRWYKQDTGRGPVSLTIMTFSENTKSNGRYTATLDADTKQSSLHITASQLSDSASYICVVGPSGGSNYKLTFGKGTLLTVNPNIQNPDPAVYQLRDSKSSDKSVCLFTDFDSQTNVSQSKDSDVYITDKTVLDMRSMDFKSNSAVAWSNKSDFACANAFNNSIIPEDTFFPSPESSCDVKLVEKSFETDTNLNFQNLSVIGFRILLLKVAGFNLLMTLRLWSS TCR beta: DSGVTQTPKHLITATGQRVTLRCSPRSGDLSVYWYQQSLDQGLQFLIQYYNGEERAKGNILERFSAQQFPDLHSELNLSSLELGDSALYFCASSGQGFLGNTEAFFGQGTRLTVVEDLNKVFPPEVAVFEPSEAEISHTQKATLVCLATGFFPDHVELSWWVNGKEVHSGVSTDPQPLKEQPALNDSRYCLSSRLRVSATFWQNPRNHFRCQVQFYGLSENDEWTQDRAKPVTQIVSAEAWGRADCGFTSVSYQQGVLSATILYEILLGKATLYAVLVSALVLMAMVKRKDF	156 nM
TCR-C DS (TCR) TCR alpha: RGNGKNQVEQSPQSLIILEGKNCTLQCNYTVSPFSNLRWYKQDTGRGPVSLTIMTFSENTKSNGRYTATLDADTKQSSLHITASQLSDSASYICVVGPSGGSNYKLTFGKGTLLTVNPNIQNPDPAVYQLRDSKSSDKSVCLFTDFDSQTNVSQSKDSDVYITDKCVLDMRSMDFKSNSAVAWSNKSDFACANAFNNSIIPEDTFFPSPESSCDVKLVEKSFETDTNLNFQNLSVIGFRILLLKVAGFNLLMTLRLWSS TCR beta: DSGVTQTPKHLITATGQRVTLRCSPRSGDLSVYWYQQSLDQGLQFLIQYYNGEERAKGNILERFSAQQFPDLHSELNLSSLELGDSALYFCASSGQGFLGNTEAFFGQGTRLTVVEDLNKVFPPEVAVFEPSEAEISHTQKATLVCLATGFFPDHVELSWWVNGKEVHSGVCTDPQPLKEQPALNDSRYCLSSRLRVSATFWQNPRNHFRCQVQFYGLSENDEWTQDRAKPVTQIVSAEAWGRADCGFTSVSYQQGVLSATILYEILLGKATLYAVLVSALVLMAMVKRKDF	24.2 nM
TCR-D (TCR) TCR alpha: NSVTQMEGPVTLSEEAFLTINCTYTATGYPSLFWYVQYPGEGLQLLLKATKADDKGSNKGFEATYRKETTSFHLEKGSVQVSDSAVYFCALSEKTSYDKVIFGPGTSLSVIPNIQNPDPAVYQLRDSKSSDKSVCLFTDFDSQTNVSQSKDSDVYITDKTVLDMRSMDFKSNSAVAWSNKSDFACANAFNNSIIPEDTFFPSPESSCDVKLVEKSFETDTNLNFQNLSVIGFRILLLKVAGFNLLMTLRLWSS TCR beta: NAGVTQTPKFRILKIGQSMTLQCTQDMNHNYMYWYRQDPGMGLKLIYYSVGAGITDKGEVPNGYNVSRSTTEDFPLRLELAAPSQTSVYFCASSYGPGGSEAFFGQGTRLTVVEDLNKVFPPEVAVFEPSEAEISHTQKATLVCLATGFFPDHVELSWWVNGKEVHSGVSTDPQPLKEQPALNDSRYCLSSRLRVSATFWQNPRNHFRCQVQFYGLSENDEWTQDRAKPVTQIVSAEAWGRADCGFTSVSYQQGVLSATILYEILLGKATLYAVLVSALVLMAMVKRKDF	4.42 nM
TCR-D DS (TCR) TCR alpha: NSVTQMEGPVTLSEEAFLTINCTYTATGYPSLFWYVQYPGEGLQLLLKATKADDKGSNKGFEATYRKETTSFHLEKGSVQVSDSAVYFCALSEKTSYDKVIFGPGTSLSVIPNIQNPDPAVYQLRDSKSSDKSVCLFTDFDSQTNVSQSKDSDVYITDKCVLDMRSMDFKSNSAVAWSNKSDFACANAFNNSIIPEDTFFPSPESSCDVKLVEKSFETDTNLNFQNLSVIGFRILLLKVAGFNLLMTLRLWSS TCR beta: NAGVTQTPKFRILKIGQSMTLQCTQDMNHNYMYWYRQDPGMGLKLIYYSVGAGITDKGEVPNGYNVSRSTTEDFPLRLELAAPSQTSVYFCASSYGPGGSEAFFGQGTRLTVVEDLNKVFPPEVAVFEPSEAEISHTQKATLVCLATGFFPDHVELSWWVNGKEVHSGVCTDPQPLKEQPALNDSRYCLSSRLRVSATFWQNPRNHFRCQVQFYGLSENDEWTQDRAKPVTQIVSAEAWGRADCGFTSVSYQQGVLSATILYEILLGKATLYAVLVSALVLMAMVKRKDF	2.18 nM
TCR-E (TCR) TCR alpha: NSVTQMEGPVTLSEEAFLTINCTYTATGYPSLFWYVQYPGEGLQLLLKATKADDKGSNKGFEATYRKETTSFHLEKGSVQVSDSAVYFCALSVKTSYDKVIFGPGTSLSVIPNIQNPDPAVYQLRDSKSSDKSVCLFTDFDSQTNVSQSKDSDVYITDKTVLDMRSMDFKSNSAVAWSNKSDFACANAFNNSIIPEDTFFPSPESSCDVKLVEKSFETDTNLNFQNLSVIGFRILLLKVAGFNLLMTLRLWSS TCR beta: NAGVTQTPKFQVLKTGQSMTLQCAQDMNHNSMYWYRQDPGMGLRLIYYSASEGTTDKGEVPNGYNVSRLNKREFSLRLESAAPSQTSVYFCASSRDRGPETQYFGPGTRLLVLEDLKNVFPPEVAVFEPSEAEISHTQKATLVCLATGFYPDHVELSWWVNGKEVHSGVSTDPQPLKEQPALNDSRYCLSSRLRVSATFWQNPRNHFRCQVQFYGLSENDEWTQDRAKPVTQIVSAEAWGRADCGFTSESYQQGVLSATILYEILLGKATLYAVLVSALVLMAMVKRKDSRG	7.78 nM
TCR-E DS (TCR) TCR alpha: NSVTQMEGPVTLSEEAFLTINCTYTATGYPSLFWYVQYPGEGLQLLLKATKADDKGSNKGFEATYRKETTSFHLEKGSVQVSDSAVYFCALSVKTSYDKVIFGPGTSLSVIPNIQNPDPAVYQLRDSKSSDKSVCLFTDFDSQTNVSQSKDSDVYITDKCVLDMRSMDFKSNSAVAWSNKSDFACANAFNNSIIPEDTFFPSPESSCDVKLVEKSFETDTNLNFQNLSVIGFRILLLKVAGFNLLMTLRLWSS TCR beta: NAGVTQTPKFQVLKTGQSMTLQCAQDMNHNSMYWYRQDPGMGLRLIYYSASEGTTDKGEVPNGYNVSRLNKREFSLRLESAAPSQTSVYFCASSRDRGPETQYFGPGTRLLVLEDLKNVFPPEVAVFEPSEAEISHTQKATLVCLATGFYPDHVELSWWVNGKEVHSGVCTDPQPLKEQPALNDSRYCLSSRLRVSATFWQNPRNHFRCQVQFYGLSENDEWTQDRAKPVTQIVSAEAWGRADCGFTSESYQQGVLSATILYEILLGKATLYAVLVSALVLMAMVKRKDSRG	3.47 nM
TCR-F (TCR) TCR alpha: EDQVTQSPEALRLQEGESSSLNCSYTVSGLRGLFWYRQDPGKGPEFLFTLYSAGEEKEKERLKATLTKKESFLHITAPKPEDSATYLCAVQATGYALNFGKGTSLLVTPHIQNPDPAVYQLRDSKSSDKSVCLFTDFDSQTNVSQSKDSDVYITDKTVLDMRSMDFKSNSAVAWSNKSDFACANAFNNSIIPEDTFFPSPESSCDVKLVEKSFETDTNLNFQNLSVIGFRILLLKVAGFNLLMTLRLWSS TCR beta: GAGVSQSPSNKVTEKGKDVELRCDPISGHTALYWYRQSLGQGLEFLIYFQGNSAPDKSGLPSDRFSAERTGGSVSTLTIQRTQQEDSAVYLCASNLGGSRQPQHFGDGTRLSILEDLNKVFPPEVAVFEPSEAEISHTQKATLVCLATGFFPDHVELSWWVNGKEVHSGVSTDPQPLKEQPALNDSRYCLSSRLRVSATFWQNPRNHFRCQVQFYGLSENDEWTQDRAKPVTQIVSAEAWGRADCGFTSVSYQQGVLSATILYEILLGKATLYAVLVSALVLMAMVKRKDF	1.5 nM
TCR-F DS (TCR) TCR alpha: EDQVTQSPEALRLQEGESSSLNCSYTVSGLRGLFWYRQDPGKGPEFLFTLYSAGEEKEKERLKATLTKKESFLHITAPKPEDSATYLCAVQATGYALNFGKGTSLLVTPHIQNPDPAVYQLRDSKSSDKSVCLFTDFDSQTNVSQSKDSDVYITDKCVLDMRSMDFKSNSAVAWSNKSDFACANAFNNSIIPEDTFFPSPESSCDVKLVEKSFETDTNLNFQNLSVIGFRILLLKVAGFNLLMTLRLWSS TCR beta: GAGVSQSPSNKVTEKGKDVELRCDPISGHTALYWYRQSLGQGLEFLIYFQGNSAPDKSGLPSDRFSAERTGGSVSTLTIQRTQQEDSAVYLCASNLGGSRQPQHFGDGTRLSILEDLNKVFPPEVAVFEPSEAEISHTQKATLVCLATGFFPDHVELSWWVNGKEVHSGVCTDPQPLKEQPALNDSRYCLSSRLRVSATFWQNPRNHFRCQVQFYGLSENDEWTQDRAKPVTQIVSAEAWGRADCGFTSVSYQQGVLSATILYEILLGKATLYAVLVSALVLMAMVKRKDF	1.36 nM
